From IntAct's records for PubMed 25502805

B1: Mothers against decapentaplegic homolog 4 (Homo sapiens), Q13485 (parent)
chain: MDNMSITNTPTSNDACLSIVHSLMCHRQGGESETFAKRAIESLVKKLKEKKDELDSLITAITTNGAHPSKCVTIQRTLDGRLQVAGRKGFPHVIYARLWRWPDLHKNELKHVKYCQYAFDLKCDSVCVNPYHYERVVSPGIDLSGLTLQSNAPSSMMVKDEYVHDFEGQPSLSTEGHSIQTIQHPPSNRASTETYSTPALLAPSESNATSTANFPNIPVASTSQPASILGGSHSEGLLQIASGPQPGQQQNGFTGQPATYHHNSTTTWTGSRTAPYTPNLPHHQNGHLQHHPPMPPHPGHYWPVHNELAFQPPISNHPAPEYWCSIAYFEMDVQVGETFKVPSSCPIVTVDGYVDPSGGDRFCLGQLSNVHRTEAIERARLHIGKGVQLECKGEGDVWVRCLSDHAVFVQSYYLDREAGRAPGDAVHKIYPSAYIKVFDLRQCHRQMQQQAATAQAAAAAQAAAVAGNIPGPGSVGGIAPAISLSAAAGIGVDDLRRLCILRMSFVKGWGPDYPRQSIKETPCWIEIHLHRALQLLDEVLHTMPIADPQPLD
partner: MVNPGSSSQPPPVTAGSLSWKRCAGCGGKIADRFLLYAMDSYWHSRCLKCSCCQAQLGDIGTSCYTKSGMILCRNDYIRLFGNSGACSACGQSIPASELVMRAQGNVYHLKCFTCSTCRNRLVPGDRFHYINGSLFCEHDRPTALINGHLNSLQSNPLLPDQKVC
B2: Mothers against decapentaplegic homolog 4 (Homo sapiens), Q13485 (parent)
chain: B1 chain
partner: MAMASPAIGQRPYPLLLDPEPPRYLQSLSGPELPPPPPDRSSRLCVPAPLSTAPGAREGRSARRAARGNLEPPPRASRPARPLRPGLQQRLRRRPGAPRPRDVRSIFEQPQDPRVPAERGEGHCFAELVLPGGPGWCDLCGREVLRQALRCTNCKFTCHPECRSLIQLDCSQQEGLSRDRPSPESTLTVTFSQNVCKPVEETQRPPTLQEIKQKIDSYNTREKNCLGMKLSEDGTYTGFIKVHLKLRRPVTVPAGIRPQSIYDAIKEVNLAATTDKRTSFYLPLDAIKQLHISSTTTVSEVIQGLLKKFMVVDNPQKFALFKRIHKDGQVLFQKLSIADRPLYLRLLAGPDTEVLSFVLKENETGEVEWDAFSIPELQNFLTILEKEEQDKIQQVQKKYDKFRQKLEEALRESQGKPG
B3: DNA mismatch repair protein Mlh1 (Homo sapiens), P40692 (parent)
chain: MSFVAGVIRRLDETVVNRIAAGEVIQRPANAIKEMIENCLDAKSTSIQVIVKEGGLKLIQIQDNGTGIRKEDLDIVCERFTTSKLQSFEDLASISTYGFRGEALASISHVAHVTITTKTADGKCAYRASYSDGKLKAPPKPCAGNQGTQITVEDLFYNIATRRKALKNPSEEYGKILEVVGRYSVHNAGISFSVKKQGETVADVRTLPNASTVDNIRSIFGNAVSRELIEIGCEDKTLAFKMNGYISNANYSVKKCIFLLFINHRLVESTSLRKAIETVYAAYLPKNTHPFLYLSLEISPQNVDVNVHPTKHEVHFLHEESILERVQQHIESKLLGSNSSRMYFTQTLLPGLAGPSGEMVKSTTSLTSSSTSGSSDKVYAHQMVRTDSREQKLDAFLQPLSKPLSSQPQAIVTEDKTDISSGRARQQDEEMLELPAPAEVAAKNQSLEGDTTKGTSEMSEKRGPTSSNPRKRHREDSDVEMVEDDSRKEMTAACTPRRRIINLTSVLSLQEEINEQGHEVLREMLHNHSFVGCVNPQWALAQHQTKLYLLNTTKLSEELFYQILIYDFANFGVLRLSEPAPLFDLAMLALDSPESGWTEEDGPKEGLAEYIVEFLKKKAEMLADYFSLEIDEEGNLIGLPLLIDNYVPPLEGLPIFILRLATEVNWDEEKECFESLSKECAMFYSIRKQYISEESTLSGQQSEVPGSIPNSWKWTVEHIVYKALRSHILPPKHFTEDGNILQLANLPDLYKVFERC
partner: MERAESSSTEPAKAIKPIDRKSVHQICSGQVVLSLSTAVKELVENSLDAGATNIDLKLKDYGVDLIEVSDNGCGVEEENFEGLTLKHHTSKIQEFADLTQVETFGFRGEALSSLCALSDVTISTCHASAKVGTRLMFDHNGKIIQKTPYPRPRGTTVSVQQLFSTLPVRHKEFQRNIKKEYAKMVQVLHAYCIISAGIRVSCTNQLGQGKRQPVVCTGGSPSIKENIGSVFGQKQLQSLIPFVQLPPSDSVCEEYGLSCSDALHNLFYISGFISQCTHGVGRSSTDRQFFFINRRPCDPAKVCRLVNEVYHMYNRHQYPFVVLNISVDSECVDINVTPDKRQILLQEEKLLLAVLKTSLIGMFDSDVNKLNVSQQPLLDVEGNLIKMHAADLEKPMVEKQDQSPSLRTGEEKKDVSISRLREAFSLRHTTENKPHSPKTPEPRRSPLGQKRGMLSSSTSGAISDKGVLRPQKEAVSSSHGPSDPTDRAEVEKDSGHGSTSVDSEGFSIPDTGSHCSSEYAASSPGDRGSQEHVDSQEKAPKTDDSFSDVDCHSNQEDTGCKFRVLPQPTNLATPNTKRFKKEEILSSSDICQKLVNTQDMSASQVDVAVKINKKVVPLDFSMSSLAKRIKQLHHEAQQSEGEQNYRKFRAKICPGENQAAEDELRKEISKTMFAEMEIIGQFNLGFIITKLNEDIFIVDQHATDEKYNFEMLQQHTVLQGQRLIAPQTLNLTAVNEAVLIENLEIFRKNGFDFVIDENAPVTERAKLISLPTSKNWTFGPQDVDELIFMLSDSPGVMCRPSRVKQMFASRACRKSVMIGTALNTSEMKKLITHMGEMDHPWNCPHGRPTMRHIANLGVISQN
B4: DNA mismatch repair protein Mlh1 (Homo sapiens), P40692 (parent)
chain: B3 chain

Variants of: B1
Settings: with lmo4_human LMO4, P61968

Variant	effect of a mutation on the interaction
Y353S	with no effect

Variants of: B2
Settings: with rasf5_human RASSF5, Q8WWW0

Variant	effect of a mutation on the interaction
R361C	with no effect
Y353S	with no effect
N13S	with no effect

Variants of: B3
Settings: with pms2_human PMS2, P54278

Variant	effect of a mutation on the interaction
I107R	disrupting interaction strength

Variants of: B4
Settings: with hsp7c_human HSPA8, P11142

Variant	effect of a mutation on the interaction
I107R	increasing interaction strength
